Test results as given in patent US20190055314A1 (ADAGENE, published 2019).
Read-outs that look alike come from different tables or passages of the source.

How the values were obtained:
[1] = target: T1, human CD137-His6 (Sino Biological #10041-H08H) (human, UniProt Q07011 24-186); assay: SPR Biacore, IgG
T1 construct: Bought; also called human CD137 protein; not shown: His6 tag

[2] = target: T2, CD137-hisFc fusion protein (Sino Biological Cat 10041-H03H) (human, UniProt Q07011 24-186); assay: BLI Octet, Fab
T2 construct: Bought; also called recombinant human CD137 (fused with human Fc and His tag); not shown: His tag and human Fc

[3] = target: T2, CD137-hisFc fusion protein (Sino …); assay: BLI Octet, Fab; remark: listed apart in the source

Binder | Kd [1] | koff [1] | kon [1] | Kd [2] | koff [2] | kon [2] | Kd [3] | koff [3] | kon [3]
Fab 5353 (Fab, V domains shown, Fab from E. coli; also called VH26/VL26) VH: EVQLVESGGGLVQPGGSLRLSCAASGFTFSSYWIHWVRQAPGKGLEWVSVISGDGDTTYYADSVKGRFTISRDNSKNTLYLQLNSLRAEDTAVYYCARSRGLVLDAFDYWGQGTLVTVSS VL: DIQLTQSPSSLSASVGDRVTITCRASQSVSGRFLAWYQQKPGKAPKLLIYDASSLESGVPSRFSGSGSGTDFTLTISSLQPEDFATYYCQQYDYWPPYTFGQGTKVEIKR | – | – | – | 16 nM | 0.006 s⁻¹ | 370000 M⁻¹ s⁻¹ | 16.1 nM | 0.00597 s⁻¹ | 370000 M⁻¹ s⁻¹
AG10086 (antibody, human IgG4 S228P, kappa, V domains shown, also called IgG of Fab 5409) VH: EVQLVESGGGLVQPGGSLRLSCAASGYSISSGHHWAWIRQAPGKGLEWVSVISGSGSSTYYADSVKGRFTISRDNSKNTLYLQLNSLRAEDTAVYYCAREGSDTVLGDWFAYWGQGTLVTVSS VL: DIQLTQSPSSLSASVGDRVTITCRASQGISSYLAWYQQKPGKAPKLLIYDASNLETGVPSRFSGSGSGTDFTLTISSLQPEDFATYYCQQGYSTWTFGQGTKVEIKR | 46 nM | 0.0045 s⁻¹ | 100000 M⁻¹ s⁻¹ | – | – | – | – | – | –
AG10063 (antibody, human IgG4 S228P, kappa, V domains shown, also called IgG of Fab 5413) VH: EVQLVESGGGLVQPGGSLRLSCAASGFSLSTGGVAVGWIRQAPGKGLEWLALIDWDGDKSYSTSLKSRLTISRDNSKNTLYLQLNSLRAEDTAVYYCAREGSTAVVGDWFDYWGQGTLVTVSS VL: DIQLTQSPSSLSASVGDRVTITCRASQGISRYLAWYQQKPGKAPKLLIYDASNRATGIPSRFSGSGSGTDFTLTISSLQPEDFATYYCQQGYSLWTFGQGTKVEIKR | 0.99 nM | 0.00039 s⁻¹ | 390000 M⁻¹ s⁻¹ | – | – | – | – | – | –
Fab 5316 (Fab, V domains shown, Fab from E. coli; also called VH17/VL17) VH: EVQLVESGGGLVQPGGSLRLSCAASGYSISSGYHWAWIRQAPGKGLEWVSSISGDGSSTYYADSVKGRFTISRDNSKNTLYLQLNSLRAEDTAVYYCAREGSDAVTGDWFAYWGQGTLVTVSS VL: DIQLTQSPSSLSASVGDRVTITCRASQGVGTYLAWYQQKPGKAPKLLIYDASSLESGVPSRFSGSGSGTDFTLTISSLQPEDFATYYCQQGYSLWTFGQGTKVEIKR | – | – | – | 11 nM | 0.0016 s⁻¹ | 140000 M⁻¹ s⁻¹ | 11.4 nM | 0.00161 s⁻¹ | 141000 M⁻¹ s⁻¹
Fab 5323 (Fab, V domains shown, Fab from E. coli; also called VH19/VL19) VH: EVQLVESGGGLVQPGGSLRLSCAASGFSLSTSGVGVGWIRQAPGKGLEWIGEIYHSGSTYYSPSLKSRVTISRDNSKNTLYLQLNSLKAEDTAVYYCAREGSDVVTGDWFAYWGQGTLVTVSS VL: DIQLTQSPSSLSASVGDRVTITCRASQGISSVLAWYQQKPGKAPKLLIYDASSLESGVPSRFSGSGSGTDFTLTISSLQPEDFATYYCQQGYSLWTFGQGTKVEIKR | – | – | – | 10 nM | 0.0081 s⁻¹ | 780000 M⁻¹ s⁻¹ | 10.4 nM | 0.00812 s⁻¹ | 782000 M⁻¹ s⁻¹
Fab 5367 (Fab, V domains shown, Fab from E. coli; also called VH31/VL31) VH: EVQLVESGGGLVQPGGSLRLSCAASGFSLSTSGVGVGWIRQAPGKGLEWVSGISGAGDSTYYADSVKGRFTISRDNSKNTLYLQLNSLRAEDTAVYYCAREGSDTVLGDWFAYWGQGTLVTVSS VL: DIQLTQSPSSLSASVGDRVTITCRASQDIRSYLAWYQQKPGKAPKLLIYDASNRATGIPSRFSGSGSGTDFTLTISSLQPEDFATYYCQQGYSIWTFGQGTKVEIKR | – | – | – | 15 nM | 0.0061 s⁻¹ | 410000 M⁻¹ s⁻¹ | 14.9 nM | 0.00608 s⁻¹ | 407000 M⁻¹ s⁻¹
AG10060 (antibody, human IgG4 S228P, kappa, V domains shown, also called IgG of Fab 5359) VH: EVQLVESGGGLVQPGGSLRLSCAASGFSLSTSGVGVGWIRQAPGKGLEWLALIDWADDKYYSPSLKSRLTISRDNSKNTLYLQLNSLRAEDTAVYYCARGGSDAVLGDWFAYWGQGTLVTVSS VL: DIQLTQSPSSLSASVGDRVTITCRASQGIGSYLAWYQQKPGKAPKLLIYDASNLETGVPSRFSGSGSGTDFTLTISSLQPEDFATYYCQQGYSIWTFGQGTKVEIKR | 1.1 nM | 0.00025 s⁻¹ | 220000 M⁻¹ s⁻¹ | – | – | – | – | – | –
AG10132 (antibody, human IgG4 S228P, kappa, V domains shown, also called IgG of Fab 5408) VH: EVQLVESGGGLVQPGGSLRLSCAASGYSITSGYHWSWIRQAPGKGLEWVSSISGYGDTTYYADSVKGRFTISRDNSKNTLYLQLNSLRAEDTAVYYCAREGSDTVLGDWFAYWGQGTLVTVSS VL: DIQLTQSPSSLSASVGDRVTITCQASQDIRTYLAWYQQKPGKAPKLLIYDASNLETGVPSRFSGSGSGTDFTLTISSLQPEDFATYYCQQGYSIWTFGQGTKVEIKR | 69 nM | 0.014 s⁻¹ | 200000 M⁻¹ s⁻¹ | – | – | – | – | – | –
AG10084 (antibody, human IgG4 S228P, kappa, V domains shown) VH: EVQLVESGGGLVQPGGSLRLSCAASGYSITSGHYWNWIRQAPGKGLEWVSGISGDGSSTYYADSVKGRFTISRDNSKNTLYLQLNSLRAEDTAVYYCARGGSDAVLGDWFAYWGQGTLVTVSS VL: DIQLTQSPSSLSASVGDRVTITCRASQSISSYLAWYQQKPGKAPKLLIYDASNLETGVPSRFSGSGSGTDFTLTISSLQPEDFATYYCQQGYSTWTFGQGTKVEIKR | 43 nM | 0.0028 s⁻¹ | 66000 M⁻¹ s⁻¹ | – | – | – | – | – | –
AG10125 (antibody, human IgG4 S228P, kappa, V domains shown, also called IgG of Fab 5314) VH: EVQLVESGGGLVQPGGSLRLSCAASGFSLSTGGVAVGWIRQAPGKGLEWLALIDWAGDKSYSTSLKSRLTISRDNSKNTLYLQLNSLRAEDTAVYYCARGGSDTVLGDWFAYWGQGTLVTVSS VL: DIQLTQSPSSLSASVGDRVTITCRASQGVSPYLAWYQQKPGKAPKLLIYDASNRATGIPSRFSGSGSGTDFTLTISSLQPEDFATYYCQQGYSTWTFGQGTKVEIKR | 15 nM | 0.0017 s⁻¹ | 110000 M⁻¹ s⁻¹ | – | – | – | – | – | –
AG10126 (antibody, human IgG4 S228P, kappa, V domains shown, also called IgG of Fab 5316) VH: EVQLVESGGGLVQPGGSLRLSCAASGYSISSGYHWAWIRQAPGKGLEWVSSISGDGSSTYYADSVKGRFTISRDNSKNTLYLQLNSLRAEDTAVYYCAREGSDAVTGDWFAYWGQGTLVTVSS VL: DIQLTQSPSSLSASVGDRVTITCRASQGVGTYLAWYQQKPGKAPKLLIYDASSLESGVPSRFSGSGSGTDFTLTISSLQPEDFATYYCQQGYSLWTFGQGTKVEIKR | 14 nM | – | – | – | – | – | – | – | –

The next lines start with the values.

Kd [1] | koff [1] | kon [1] | Kd [2] | koff [2] | kon [2] | Kd [3] | koff [3] | kon [3] | Binder
5.9 nM | 0.00094 s⁻¹ | 160000 M⁻¹ s⁻¹ | – | – | – | – | – | – | AG10062 (antibody, human IgG4 S228P, kappa, V domains shown, also called IgG of Fab 5404) VH: EVQLVESGGGLVQPGGSLRLSCAASGYSISSGYHWAWIRQAPGKGLEWIGEIYHSGSTYYSPSLKSRVTISRDNSKNTLYLQLNSLRAEDTAVYYCARSPYYYGVFDYWGQGTLVTVSS VL: DIQLTQSPSSLSASVGDRVTITCSASSRVGSVYWYQQKPGKAPKLLIYDASNLETGVPSRFSGSGSGTDFTLTISSLQPEDFATYYCQQYTHDPVTFGQGTKVEIKR
1.4 nM | 0.00027 s⁻¹ | 190000 M⁻¹ s⁻¹ | – | – | – | – | – | – | AG10079 (antibody, human IgG4 S228P, kappa, V domains shown, also called IgG of Fab 4074) VH: EVQLVESGGGLVQPGGSLRLSCAASGFSLSTGGVGVSWIRQAPGKGLEWVSSISGSGGTTYYADSVKGRFTISRDNSKNTLYLQLNSLRAEDTAVYYCARDDLYSWYFDVWGQGTLVTVSS VL: DIQLTQSPSSLSASVGDRVTITCRASQGIGSSLAWYQQKPGKAPKLLIYAASSLQSGVPSRFSGSGSGTDFTLTISSLQPEDFATYYCQQGYYTWTFGQGTKVEIKR
9.6 nM | 0.0029 s⁻¹ | 300000 M⁻¹ s⁻¹ | – | – | – | – | – | – | AG10127 (antibody, human IgG4 S228P, kappa, V domains shown, also called IgG of Fab 5318) VH: EVQLVESGGGLVQPGGSLRLSCAASGFSLSTSGVAVGWIRQAPGKGLEWLALIDWDDDKYYSTSLKSRLTISRDNSKNTLYLQLNSLRAEDTAVYYCAREGSTAVAGDWFAYWGQGTLVTVSS VL: DIQLTQSPSSLSASVGDRVTITCQASQDIRTFLAWYQQKPGKAPKLLIYDASNRATGIPSRFSGSGSGTDFTLTISSLQPEDFATYYCQQGYSTWTFGQGTKVEIKR
7.9 nM | 0.0061 s⁻¹ | 770000 M⁻¹ s⁻¹ | – | – | – | – | – | – | AG10057 (antibody, human IgG4 S228P, kappa, V domains shown, also called IgG of Fab 5303) VH: EVQLVESGGGLVQPGGSLRLSCAASGFSLSTSGVAVGWIRQAPGKGLEWLALIDWADDKYYSPSLKSRLTISRDNSKNTLYLQLNSLRAEDTAVYYCAREGSDAVLGDWFAYWGQGTLVTVSS VL: DIQLTQSPSSLSASVGDRVTITCRASQDISTFLAWYQQKPGKAPKLLIYDASSLESGVPSRFSGSGSGTDFTLTISSLQPEDFATYYCQQAYSIWTFGQGTKVEIKR
3.6 nM | 0.00078 s⁻¹ | 220000 M⁻¹ s⁻¹ | – | – | – | – | – | – | AG10061 (antibody, human IgG4 S228P, kappa, V domains shown) VH: EVQLVESGGGLVQPGGSLRLSCAASGFSLSTSGVAVAWIRQAPGKGLEWLALIDWDDDKRYSTSLKSRLTISRDNSKNTLYLQLNSLRAEDTAVYYCAREGSTTVVGDWFDYWGQGTLVTVSS VL: DIQLTQSPSSLSASVGDRVTITCRASQGIGTYLAWYQQKPGKAPKLLIYDASNRATGIPSRFSGSGSGTDFTLTISSLQPEDFATYYCQQGYSLWTFGQGTKVEIKR
3 nM | 0.00037 s⁻¹ | 120000 M⁻¹ s⁻¹ | – | – | – | – | – | – | AG10128 (antibody, human IgG4 S228P, kappa, V domains shown, also called IgG of Fab 5342) VH: EVQLVESGGGLVQPGGSLRLSCAASGFSLSTGGVAVGWIRQAPGKGLEWLALIDWAGDKSYSTSLKSRLTISRDNSKNTLYLQLNSLRAEDTAVYYCAREGEDAVTGDWFAYWGQGTLVTVSS VL: DIQLTQSPSSLSASVGDRVTITCQASQDIRTYLAWYQQKPGKAPKLLIYDASNRATGIPSRFSGSGSGTDFTLTISSLQPEDFATYYCQQGYSIWTFGQGTKVEIKR
13 nM | 0.0019 s⁻¹ | 140000 M⁻¹ s⁻¹ | – | – | – | – | – | – | AG10054 (antibody, human IgG4 S228P, kappa, V domains shown, also called IgG of Fab 4072) VH: EVQLVESGGGLVQPGGSLRLSCAASGFSLSTSGVAVSWIRQAPGKGLEWIGIINPNFGDTNYAQKFQGRVTISRDNSKNTLYLQLNSLRAEDTAVYYCARDEYYGGSYYFDYWGQGTLVTVSS VL: DIQLTQSPSSLSASVGDRVTITCRASQDVRTAVAWYQQKPGKAPKLLIYDASNLETGVPSRFSGSGSGTDFTLTISSLQPEDFATYYCQQSYDWPPTFGQGTKVEIKR
